Reference: patent US20040063907A1 (published 2004)

Legend:
[1] = target: T1, Beta galactosidase (negative control protein purified from E. coli) (UniProt P00722 1-1024 = β-galactosidase, limits assumed); experiment: ELISA, hybridoma supernatant on coated protein, anti-mouse HRP
T1 construct: also called β-galactosidase; p-galactosidase

[2] = target: T2, purified recombinant C35 protein generated in E. coli (human, UniProt Q9BRT3 1-115, limits assumed); experiment: ELISA, hybridoma supernatant on coated C35 protein, anti-mouse HRP
T2 construct: also called hC35 protein; soluble C35 protein
T2 sequence: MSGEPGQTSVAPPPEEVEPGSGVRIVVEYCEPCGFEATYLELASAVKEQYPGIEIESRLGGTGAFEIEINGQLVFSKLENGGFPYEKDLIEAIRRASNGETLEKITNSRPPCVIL

[3] = target: T3, C35 polypeptide, as expressed by human tumor cells and breast tumor tissue (human, UniProt Q9BRT3 2-112); experiment: immunohistochemistry on paraffin sections, affinity purified antibody
T3 construct: 115 amino acid protein with a predicted prenylation motif CVIL at 112-115; It was detected on unfixed, non-permeabilized tumor cells and in paraffin sections; also called C35 protein; C35 antigen
T3 sequence: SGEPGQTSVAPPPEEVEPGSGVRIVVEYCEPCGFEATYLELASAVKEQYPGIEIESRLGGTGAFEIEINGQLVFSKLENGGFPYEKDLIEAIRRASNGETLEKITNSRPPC

[4] = target: T4, C35 protein, bacterially synthesized (recombinant human C35 purified from E. coli) (human, UniProt Q9BRT3 1-115, limits assumed); experiment: ELISA screen of hybridoma supernatants on plates coated with C35 protein
T4 construct: also called hC35; recombinant C35 protein
T4 sequence: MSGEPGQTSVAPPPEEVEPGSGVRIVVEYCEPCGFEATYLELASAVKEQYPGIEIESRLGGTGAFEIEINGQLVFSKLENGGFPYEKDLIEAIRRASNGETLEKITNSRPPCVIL

[5] = target: T5, C35 as expressed by cells or tissue (flow cytometry, immunohistochemistry) (human, UniProt Q9BRT3 2-112); experiment: immunohistochemistry of breast tumour sections
T5 construct: also called endogenous C35
T5 sequence: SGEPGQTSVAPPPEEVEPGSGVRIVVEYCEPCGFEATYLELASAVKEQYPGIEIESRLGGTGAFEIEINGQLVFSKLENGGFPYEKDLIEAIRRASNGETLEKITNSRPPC

[6] = target: soluble HLA-B*0702 (human); experiment: fluorescence polarization competition against the fluorescent labeled standard on soluble HLA-B*0702
[7] = target: HLA-A*0201 (human); experiment: fluorescence polarization competition, test peptide at 100 uM against the fluorescent-labeled peptide on HLA-A*0201, from Ymax

T1 sequence (P00722 whole entry): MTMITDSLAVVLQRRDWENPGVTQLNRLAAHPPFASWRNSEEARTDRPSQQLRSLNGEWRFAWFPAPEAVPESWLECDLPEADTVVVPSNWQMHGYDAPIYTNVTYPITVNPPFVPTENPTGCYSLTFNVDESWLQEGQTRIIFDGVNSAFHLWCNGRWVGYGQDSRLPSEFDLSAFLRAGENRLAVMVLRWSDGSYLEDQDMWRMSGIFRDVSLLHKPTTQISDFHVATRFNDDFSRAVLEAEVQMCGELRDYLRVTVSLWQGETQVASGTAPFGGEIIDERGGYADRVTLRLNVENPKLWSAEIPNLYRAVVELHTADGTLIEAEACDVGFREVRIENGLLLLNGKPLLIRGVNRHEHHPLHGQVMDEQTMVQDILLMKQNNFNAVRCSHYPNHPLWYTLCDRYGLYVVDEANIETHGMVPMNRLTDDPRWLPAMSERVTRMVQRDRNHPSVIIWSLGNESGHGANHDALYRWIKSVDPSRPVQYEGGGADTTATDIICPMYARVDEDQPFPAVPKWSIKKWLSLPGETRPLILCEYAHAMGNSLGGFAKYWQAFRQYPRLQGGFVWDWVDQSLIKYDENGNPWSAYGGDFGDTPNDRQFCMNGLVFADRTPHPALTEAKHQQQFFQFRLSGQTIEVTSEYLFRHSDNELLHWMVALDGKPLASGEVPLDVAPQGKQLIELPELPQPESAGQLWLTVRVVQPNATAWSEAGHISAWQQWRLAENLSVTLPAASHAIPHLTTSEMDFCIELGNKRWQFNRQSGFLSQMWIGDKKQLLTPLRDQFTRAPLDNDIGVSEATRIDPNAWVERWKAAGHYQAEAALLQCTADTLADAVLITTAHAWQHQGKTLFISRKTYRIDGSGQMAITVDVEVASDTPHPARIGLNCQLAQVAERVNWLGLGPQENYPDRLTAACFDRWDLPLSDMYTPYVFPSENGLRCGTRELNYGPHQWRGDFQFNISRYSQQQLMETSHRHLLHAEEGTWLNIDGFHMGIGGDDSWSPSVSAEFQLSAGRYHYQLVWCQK

Binder | % inhibition [6] | % inhibition [7] | other results
1E11 monoclonal antibody (antibody, mouse IgG1, V domains shown, also called IE11) VH: DVQLQESGPGLVKPSQSLSLTCSVTGYSITSGYFWNWIRQFPGNKLEWMGYISYDGSNNSNPSLKNRISFTRDTSKNQFFLKFNSVTTDDSAAYYCTRGTTGFAYWGQGTLVTVSA VL: QIVLTQSPAIMSASPGEKVTISCSASSSVSYMNWYQQKPGSSPKPWIYHTSNLASGVPARFSGSGSGTSYSLTISSMEAEDAATYYCQQYHSYPPTFGGGTKLEIK | – | – | binding result [1]: no binding; binding result [2]: binds
1F2 monoclonal antibody (antibody, V domains shown, Mouse IgG1 kappa; In the VL, one printed codon 'get' was read as gct; also called IF2) VH: DVQLQESGPGLVKPSQSLSLTCSVTGYSITSGYFWNWIRQFPGNKLEWMGYISYDGSNNSNPSLKNRISFTRDTSKNQFFLKFNSVTTDDSAAYYCTRGTTGFAYWGQGTLVTVSA VL: QIVLTQSPAIMSASPGEKVTISCSASSSVSYMNWYQQKPGSSPKPWIYHTSNLASGVPARFSGSGSGTSYSLTISSMEAEDAATYYCQQYHSYPPTFGGGTKLEIK | – | – | binding result [1]: no binding; binding result [2]: binds; binding result [3]: binds
monoclonal antibody of hybridoma clone 1F2 (antibody, V domains shown, also called IF2) VH: DVQLQESGPGLVKPSQSLSLTCSVTGYSITSGYFWNWIRQFPGNKLEWMGYISYDGSNNSNPSLKNRISFTRDTSKNQFFLKFNSVTTDDSAAYYCTRGTTGFAYWGQGTLVTVSA VL: QIVLTQSPAIMSASPGEKVTISCSASSSVSYMNWYQQKPGSSPKPWIYHTSNLASGVPARFSGSGSGTSYSLTISSMEAEDAATYYCQQYHSYPPTFGGGTKLEIK | – | – | binding result [4]: binds; binding result [5]: binds
monoclonal antibody of hybridoma clone 1E11 (antibody, mouse IgG1, V domains shown, Mouse IgG1 kappa, immunization BCA34.hC35; See the note of 1F2 for a translation; also called IE11) VH: DVQLQESGPGLVKPSQSLSLTCSVTGYSITSGYFWNWIRQFPGNKLEWMGYISYDGSNNSNPSLKNRISFTRDTSKNQFFLKFNSVTTDDSAAYYCTRGTTGFAYWGQGTLVTVSA VL: QIVLTQSPAIMSASPGEKVTISCSASSSVSYMNWYQQKPGSSPKPWIYHTSNLASGVPARFSGSGSGTSYSLTISSMEAEDAATYYCQQYHSYPPTFGGGTKLEIK | – | – | binding result [4]: binds
NSRPPAVIL [C35 peptide N107 to L115 (analog with Ala substituted for Cys at 112)] | 68.2% | – | –
TYLELASAV [C35 peptide T38 to V46] | – | 47.3% | –
GTGAFEIEI [C35 peptide G61 to I69] | – | 46.5% | –
ITNSRPPAV [C35 peptide I105 to V113 (analog with Ala substituted for Cys at 112)] | 45.2% | – | –
KITNSRPPA [C35 peptide K104 to A112 (analog with Ala substituted for Cys at 112)] | 69.4% | – | –
ITNSRPPCV [C35 peptide I105 to V113] | – | 86.4% | –
SVAPPPEEV [C35 peptide S9 to V17] | – | 96.9% | –
TGAFEIEIN (also called TGAFEIEIN) [C35 peptide T62 to N70] | 38.8% | – | –
GAFEIEING (also called GAFEIEING) [C35 peptide G63 to G71] | 51.4% | – | –
FEIEINGQL [C35 peptide F65 to L73] | – | 74.8% | –
SGVRIVVEY [C35 peptide S21 to Y29] | – | 90.8% | –
1B3 monoclonal antibody (antibody, mouse IgG1, V domains shown, Mouse IgG1, tested as hybridoma supernatant) VH: EVQLQESGPSLVKPSQTLSLTCSVTGDSITSGYWNWIRKFPGNKLEYVGYISYSGGTYYNPSLKSRISITRDTSKNHYYLQLNSVTTEDTATYYCARGAYYGGAFFPYFDVWGAGTTVTVSS VL: DVQITQSPSFLAASPGETITINCRASKYISKHLVWYQEKPGETKKLLIYSGSTLQSGLPSRFSGSGSGTDFTLTISSLEPEDFAMYYCQQHNEYPLTFGAGTKLELK | – | – | binding result [1]: no binding
3E10 monoclonal antibody (antibody, V domains shown) VH: EVQLQESGPSLVKPSQTLSLTCSVTGDSITSGYWNWIRKFPGNKLEYVGYISYSGGTYYNPSLKSRISITRDTSKNHYYLQLNSVTTEDTATYYCARGAYYGGAFFPYFDVWGAGTTVTVSS VL: DVQITQSPSFLAASPGETITINCRASKYISKHLVWYQEKPGETKKLLIYSGSTLQSGLPSRFSGSGSGTDFTLTISSLEPEDFAMYYCQQHNEYPLTFGAGTKLELK | – | – | binding result [1]: no binding
EPGQTSVAP [C35 peptide E4 to P12] | 54.6% | – | –
